The values below come from publication doi:10.1101/2022.02.13.480237 (bioRxiv, 2022).

Experiment [1] concerns the target T1, GST^4CS-RGA recombinant protein (REPRESSOR-OF-ga1-3) (Arabidopsis, UniProt Q9SLH3 1-587).
T1 sequence (looked up): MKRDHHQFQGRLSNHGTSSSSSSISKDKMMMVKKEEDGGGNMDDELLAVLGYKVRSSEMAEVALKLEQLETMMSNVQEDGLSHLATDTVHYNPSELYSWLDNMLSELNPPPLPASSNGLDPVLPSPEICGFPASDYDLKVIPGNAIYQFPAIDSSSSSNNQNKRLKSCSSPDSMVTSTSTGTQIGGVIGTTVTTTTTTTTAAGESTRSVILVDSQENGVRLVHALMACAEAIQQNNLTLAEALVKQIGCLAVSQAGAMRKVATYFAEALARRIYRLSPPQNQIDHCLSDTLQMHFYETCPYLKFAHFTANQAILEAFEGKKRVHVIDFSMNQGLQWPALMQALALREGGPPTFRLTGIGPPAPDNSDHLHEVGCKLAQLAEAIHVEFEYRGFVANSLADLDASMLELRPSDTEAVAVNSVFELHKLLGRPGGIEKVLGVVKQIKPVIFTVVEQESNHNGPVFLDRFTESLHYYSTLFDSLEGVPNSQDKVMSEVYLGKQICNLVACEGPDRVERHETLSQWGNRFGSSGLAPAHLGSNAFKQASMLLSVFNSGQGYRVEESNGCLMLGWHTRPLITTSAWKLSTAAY
The experiment is described as follows: pull-down.

For experiment [2], the target named is T2, GST^4CS-RGA^C374S recombinant protein (Arabidopsis, UniProt Q9SLH3 1-587, C374S).
T2 sequence (looked up): T1 sequence (looked up) with C374S
The experiment is described as follows: pull-down.

Positions count from the first letter of the chain named.

B1: His-GID1c recombinant protein (GA-… DWARF1c) (receptor, Arabidopsis, UniProt Q940G6 1-344, looked up)
chain: MAGSEEVNLIESKTVVPLNTWVLISNFKLAYNLLRRPDGTFNRHLAEFLDRKVPANANPVNGVFSFDVIIDRQTNLLSRVYRPADAGTSPSITDLQNPVDGEIVPVIVFFHGGSFAHSSANSAIYDTLCRRLVGLCGAVVVSVNYRRAPENRYPCAYDDGWAVLKWVNSSSWLRSKKDSKVRIFLAGDSSGGNIVHNVAVRAVESRIDVLGNILLNPMFGGTERTESEKRLDGKYFVTVRDRDWYWRAFLPEGEDREHPACSPFGPRSKSLEGLSFPKSLVVVAGLDLIQDWQLKYAEGLKKAGQEVKLLYLEQATIGFYLLPNNNHFHTVMDEIAAFVNAECQ
Turning to B1, the binding result in experiment [1] is given as “binds”.

B2: His-GID1a recombinant protein (GA-… DWARF1a) (receptor, Arabidopsis, UniProt Q9MAA7 1-345, looked up)
chain: MAASDEVNLIESRTVVPLNTWVLISNFKVAYNILRRPDGTFNRHLAEYLDRKVTANANPVDGVFSFDVLIDRRINLLSRVYRPAYADQEQPPSILDLEKPVDGDIVPVILFFHGGSFAHSSANSAIYDTLCRRLVGLCKCVVVSVNYRRAPENPYPCAYDDGWIALNWVNSRSWLKSKKDSKVHIFLAGDSSGGNIAHNVALRAGESGIDVLGNILLNPMFGGNERTESEKSLDGKYFVTVRDRDWYWKAFLPEGEDREHPACNPFSPRGKSLEGVSFPKSLVVVAGLDLIRDWQLAYAEGLKKAGQEVKLMHLEKATVGFYLLPNNNHFHNVMDEISAFVNAEC
In the case of B2, the binding result in experiment [1] is recorded as “binds”.

B3: His-SLY1 recombinant protein (F-box protein SLEEPY1) (natural protein, Arabidopsis, UniProt Q9STX3 1-151, looked up)
chain: MKRSTTDSDLAGDAHNETNKKMKSTEEEEIGFSNLDENLVYEVLKHVDAKTLAMSSCVSKIWHKTAQDERLWELICTRHWTNIGCGQNQLRSVVLALGGFRRLHSLYLWPLSKPNPRARFGKDELKLTLSLLSIRYYEKMSFTKRPLPESK
For B3, the binding result in experiment [2] is recorded as “binds”.
